From PMC2680971 (Journal of Molecular Biology, 2009)

Experiments:
[1] = target: DC-SIGNR neck domain, 7.5 repeat form, His2 tag (human); assay: SEC
[2] = target: the molecule itself; assay: SEC

stoichiometry N [1] | Molecule | stoichiometry N [2]
4 | DC-SIGNR neck domain, 7.5 repeat form, His2 tag (domain or fragment) | –
– | DC-SIGNR neck domain, 6.5 repeat polymorphic form, His2 tag (domain or fragment) KVPSSLSQEQSEQDAIYQNLTQLKAAVGELSEKSKLQEIYQELTQLKAAVGELPEKSKLQEIYQELTRLKAAVGELPEKSKLQEIYQELTRLKAAVGELPEKSKLQEIYQELTRLKAAVGELPEKSKLQEIYQELTELKAAVGELPEKSKLQEIYQELTQLKAAVE | 4
